The text below walks through data of PMC6684607.

As a reminder, the stoichiometry N is a count of units in the complex or per binding partner.

The target in assay [1] is Recombinantly expressed TNF domain of Spodoptera frugiperda Eiger (SfEiger) (Spodoptera frugiperda). Briefly: SEC; Superdex 200 Increase 10/300 GL; elution volume compared with a protein standard.
Assay [2] addresses TNF domain of Spodoptera frugiperda Eiger (SfEiger), endogenous soluble form released from Sf9 cells (Spodoptera frugiperda (endogenous in Sf9)). Nature of the assay: crystal structure; X-ray, 1.7 A, space group R 3:H, one protomer in the asymmetric unit, trimer generated by the crystallographic threefold axis; crystal grown at 298 K in MORPHEUS condition 1-26.

Regarding “Recombinantly expressed TNF domain of Spodoptera frugiperda Eiger (SfEiger) (domain or fragment)”, the stoichiometry N in assay [1] turned out to be 3.

As for “TNF domain of Spodoptera frugiperda Eiger (SfEiger), endogenous soluble form released from Sf9 cells (domain or fragment)”, the stoichiometry N in assay [2] is 3.
